Consider three substances from patent US20140309177.

Experiment in all cases: cell_activity
Holding throughout (conditions): HEK293T luciferase reporter, single TALE-TF
For orientation: Reporter assays use an easily measured gene product as a stand-in for the process of interest.

Data set [1] deals with CEACAM5 TALE B TALE-TF (VP64) (synthetic (Xanthomonas TALE)?) (UniProt Q56830).
For data set [2], the system named is CEACAM5 TALE C TALE-TF (VP64) (synthetic (Xanthomonas TALE)?).
Data set [3] deals with CEACAM5 TALE D TALE-TF (VP64) (synthetic (Xanthomonas TALE)?) (UniProt Q56830).
The target of data set [4] is CEACAM5 TALE E TALE-TF (VP64) (synthetic (Xanthomonas TALE)?) (UniProt Q56830).
In data set [5] the test system is CEACAM5 TALE F TALE-TF (VP64) (synthetic (Xanthomonas TALE)?).
Data set [6] has as its system KLK3 TALE D TALE-TF (VP64) (synthetic (Xanthomonas TALE)?).
In data set [7] the target is KLK3 TALE E TALE-TF (VP64) (synthetic (Xanthomonas TALE)?) (UniProt Q56830).
Data set [8] deals with KLK3 TALE F TALE-TF (VP64) (synthetic (Xanthomonas TALE)?) (UniProt Q56830).
Data set [9] deals with KLK3 TALE-A TALE-TF (VP64) (synthetic (Xanthomonas TALE)?) (UniProt Q56830).
The target of data set [10] is IL1RN TALE-A TALE-TF (VP64) (synthetic (Xanthomonas TALE)?) (UniProt Q56830).
In data set [11] the test system is IL1RN TALE-B TALE-TF (VP64) (synthetic (Xanthomonas TALE)?).
Data set [12] concerns IL1RN TALE-C TALE-TF (VP64) (synthetic (Xanthomonas TALE)?).
In data set [13] the target is IL1RN TALE-D TALE-TF (VP64) (synthetic (Xanthomonas TALE)?) (UniProt P14727).

On to “CEACAM5 promoter reporter (hg19 chr19:42211804-42212651)”, for which the activity in data set [1] came to 11.6 fold RLA; in data set [2], 3.74 fold RLA; in data set [3], 4.59 fold RLA; in data set [4], 2.41 fold RLA; in data set [5] it was 4.7 fold RLA.
Take “KLK3 promoter reporter (hg19 chr19:51357466-51358177)”: the activity was 45.8 fold RLA in data set [6], 2.17 fold RLA in data set [7], 4.57 fold RLA in data set [8] and 25.1 fold RLA in data set [9].
Regarding “IL1RN promoter reporter (hg19 chr2:113874366-113875462)”, the activity is 14.4 fold RLA in [10], 12 fold RLA in [11], 6.75 fold RLA in data set [12] and 5.76 fold RLA in [13].
